Laboratory results published in PMC8809517, “Cofactor-independent RNA editing by a synthetic S-type PPR protein”.

T1: GFP-9S library array, motif 4 ND N98L (synthetic construct, N98L)
T1 chain: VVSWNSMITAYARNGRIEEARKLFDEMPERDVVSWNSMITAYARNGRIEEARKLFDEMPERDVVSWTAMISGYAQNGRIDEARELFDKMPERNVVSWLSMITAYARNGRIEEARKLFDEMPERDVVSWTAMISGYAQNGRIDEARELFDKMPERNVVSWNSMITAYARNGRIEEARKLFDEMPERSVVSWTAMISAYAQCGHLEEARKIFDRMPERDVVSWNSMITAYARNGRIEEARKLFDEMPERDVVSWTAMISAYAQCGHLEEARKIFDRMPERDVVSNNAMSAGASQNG

T2: GFP-9S library array, motif 4 ND N98I;D124H (synthetic construct, N98I;D124H)
T2 chain: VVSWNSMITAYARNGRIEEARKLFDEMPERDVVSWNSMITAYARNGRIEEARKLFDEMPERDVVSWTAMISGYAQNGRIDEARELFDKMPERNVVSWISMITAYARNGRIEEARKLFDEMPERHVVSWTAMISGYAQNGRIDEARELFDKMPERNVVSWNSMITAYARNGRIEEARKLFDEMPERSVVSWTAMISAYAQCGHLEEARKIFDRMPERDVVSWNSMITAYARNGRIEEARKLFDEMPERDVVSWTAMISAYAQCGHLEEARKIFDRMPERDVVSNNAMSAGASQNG

T3: GFP-9S library array, motif 4 ND N98Q;D124V (synthetic construct, N98Q;D124V)
T3 chain: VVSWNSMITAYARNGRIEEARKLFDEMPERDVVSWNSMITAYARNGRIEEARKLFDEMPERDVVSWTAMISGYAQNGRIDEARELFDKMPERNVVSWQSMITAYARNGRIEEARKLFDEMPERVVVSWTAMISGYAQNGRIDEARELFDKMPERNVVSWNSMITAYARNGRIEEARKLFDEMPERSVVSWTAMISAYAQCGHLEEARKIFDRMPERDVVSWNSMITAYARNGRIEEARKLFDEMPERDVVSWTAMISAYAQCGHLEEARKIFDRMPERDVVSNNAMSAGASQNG

T4: GFP-9S library array, motif 4 ND N98V;D124T (synthetic construct, N98V;D124T)
T4 chain: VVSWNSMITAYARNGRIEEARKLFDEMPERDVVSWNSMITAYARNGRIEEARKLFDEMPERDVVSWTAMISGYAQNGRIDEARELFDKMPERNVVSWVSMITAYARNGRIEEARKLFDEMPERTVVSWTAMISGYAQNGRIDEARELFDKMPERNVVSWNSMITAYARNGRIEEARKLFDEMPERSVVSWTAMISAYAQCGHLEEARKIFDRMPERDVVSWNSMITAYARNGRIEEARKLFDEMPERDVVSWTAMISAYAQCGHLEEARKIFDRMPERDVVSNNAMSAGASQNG

T5: GFP-9S library array, motif 4 ND N98S;D124M (synthetic construct, N98S;D124M)
T5 chain: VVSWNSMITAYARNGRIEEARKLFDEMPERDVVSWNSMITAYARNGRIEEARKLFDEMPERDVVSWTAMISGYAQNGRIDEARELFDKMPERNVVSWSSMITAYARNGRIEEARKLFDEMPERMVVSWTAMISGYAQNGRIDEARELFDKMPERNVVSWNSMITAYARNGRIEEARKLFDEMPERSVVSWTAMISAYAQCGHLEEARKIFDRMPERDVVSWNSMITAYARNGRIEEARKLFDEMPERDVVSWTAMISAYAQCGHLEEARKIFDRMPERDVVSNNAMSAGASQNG


Key:
Test in all cases: high-throughput RNA pulldown from lysate on Ni-NTA beads; HRP: 50 mM Tris pH 8, 150 mM NaCl, 1 mM beta-mercaptoethanol, 50 ug/ml BSA, 3 ug/ml yeast RNA, 0.5% heparin; ITC and FP: Tris pH 8, 200 mM KCl, 5% glycerol; MST: 50 mM Tris pH 8, 200 mM NaCl, 1 mM DTT, BSA, heparin, 0.05% Tween 20
Details in all cases: tags: N-terminal His-eGFP
[1] = biological target: T1, GFP-9S library array, motif 4 ND N98L
[2] = biological target: T2, GFP-9S library array, motif 4 ND …
[3] = biological target: T3, GFP-9S library array, motif 4 ND …
[4] = biological target: T4, GFP-9S library array, motif 4 ND …
[5] = biological target: T5, GFP-9S library array, motif 4 ND …

Binder	Kd ([1]; label: 5' Cy5)	Kd ([2]; label: 5' Cy5)	Kd ([3]; label: 5' Cy5)	Kd ([4]; label: 5' Cy5)	Kd ([5]; label: 5' Cy5)	Kd ([1]; label: 5' IRDye 800CW)	Kd ([2]; label: 5' IRDye 800CW)	Kd ([3]; label: 5' IRDye 800CW)	Kd ([4]; label: 5' IRDye 800CW)	Kd ([5]; label: 5' IRDye 800CW)
AUUACACGUGA (ssRNA) [Cy5-rpoA]	214 nM	147 nM	3530 nM	89.3 nM	120 nM	–	–	–	–	–
AUUAGACGUGA (ssRNA) [Cy5-rpoA-G]	183 nM	107 nM	3040 nM	86.7 nM	183 nM	–	–	–	–	–
AUUAUACGUGA (ssRNA) [IR-rpoA-U]	–	–	–	–	–	66.3 nM	243 nM	3180 nM	29.3 nM	160 nM
AUUAAACGUGA (ssRNA) [IR-rpoA-A]	–	–	–	–	–	452 nM	167 nM	4090 nM	36.3 nM	369 nM
